Results from US20220112288A1 (published 2022).

What was measured:
[1] = molecular target: T1, human CD4 on cells (SKW3 cells; human PBMCs) (human, UniProt P01730 26-458); experiment: FACS confirmation, supernatant on SKW3 WT cells, anti-mFc 647 (Bkrd gMFI = 3300)
T1 construct: whole, on cells; SKW3 CD4 knockout cells served as the negative cell line for the WT vs KO ratios; also called hCD4; SKW3 WT

[2] = molecular target: T1, human CD4 on cells (SKW3 cells; human …); experiment: FACS confirmation, supernatant on human PBMCs, anti-mFc 647, percent of viable cells
huCD4-HIS = molecular target: T2, huCD4-HIS (human, UniProt P01730 26-390, limits assumed); experiment: ELISA binning; competitor Ibalizumab, 100 ng/mL huCD4-HIS, anti-HIS HRP detection (background 45, max binding 3000000)
T2 construct: Named only in the head of the ELISA binning column; not shown: HIS tag

[3] = molecular target: T1, human CD4 on cells (SKW3 cells; human …); experiment: SKW3 FACS binning; competitor RPA-T4-PE-Dazzle 594 added after supernatant (background 783, max binding 15000)
[4] = molecular target: T1, human CD4 on cells (SKW3 cells; human …); experiment: SKW3 FACS binning; competitor OKT4a added after supernatant, anti-hu A647 secondary (background 5000, max binding 35000)
[5] = molecular target: T1, human CD4 on cells (SKW3 cells; human …); experiment: FACS confirmation, supernatant on SKW3 WT cells, anti-hu Kappa FITC (Bkrd gMFI = 2500)
[6] = molecular target: T1, human CD4 on cells (SKW3 cells; human …); experiment: FACS primary screen, non-clonal hybridoma supernatant; SKW3 WT vs SKW3 CD4 KO cells, anti-mFc-647
[7] = molecular target: T1, human CD4 on cells (SKW3 cells; human …); experiment: SKW3 FACS binning; competitor OKT4-A488 added after supernatant (background 2163, max binding 8200)
[8] = molecular target: T1, human CD4 on cells (SKW3 cells; human …); experiment: FACS primary screen, non-clonal hybridoma supernatant; SKW3 WT vs SKW3 CD4 KO cells, anti-hKappa-FITC
[9] = molecular target: T1, human CD4 on cells (SKW3 cells; human …); experiment: FACS confirmation, supernatant on human PBMCs, anti-mFc 647, CD4+ gate

Row | gMFI [1] | Ibalizumab ELISA binning signal (huCD4-HIS) | RPA-T4-PE-Dazzle 594 signal in binning [3] | OKT4a anti-hu A647 signal in binning [4] | gMFI [5] | SKW3 WT vs KO anti-mFc-647 [6] | OKT4 A488 signal in binning [7] | SKW3 WT vs KO anti-hKappa-FITC [8] | CD4+ gate RL1 Binding [9] | Binder | CD4+ Percent Bound of Viable [2]
1 | 12000 gMFI | 45 | 12100 | 22500 | 4060 gMFI | 6.6 fold | 9330 | 1.5 fold | 178000 | 75110_04G02A (antibody, V domains shown, Tested as non-clonal hybridoma supernatant (AlivaMab Mouse Kappa), detected with anti-mouse Fc and anti-human kappa) VH: not shown VL: DIVMTQSPDSLAVSLGERATINCKSSQSVLYSSNNKNYLAWYQQKPGQPPKLLFYWASARESGVPDRFSGSGSGTDFTLTISSLQAEDVALYYCQQYFGSFPTFGQGTKLEIK | 27%
2 | 9180 gMFI | 230000 | 13300 | 42000 | 3140 gMFI | 2.7 fold | 7980 | 1 fold | 258000 | 75110_08A13A (antibody, V domains shown, Tested as non-clonal hybridoma supernatant (AlivaMab Mouse Kappa), detected with anti-mouse Fc and anti-human kappa) VH: EVQLVESGGGLVQPGGSLRLSCAASGFIFSSYWMSWVRQAPGKGLEWVANIKQDGSEKYYMDSVKGRFTISRDNAKNSLYLQMNSLRAEDTAVYYCARDNSYYYYGMDVWGQGTTVTVSS VL: AIQMTQSPSSLSASVGDRVTITCRASQGIRDDLGWYQQKPGKAPKLLIFAASSLQSGVPSSFSGSGSGTDFTLTISSLQPEDFATYYCLHHYNYPYTFGQGTKLEIK | 29%
3 | 13800 gMFI | 1.26e+06 | 14000 | 15900 | 5140 gMFI | 4.1 fold | 9920 | 1.9 fold | 241000 | 75110_03I23A (antibody, V domains shown, Tested as non-clonal hybridoma supernatant (AlivaMab Mouse Kappa), detected with anti-mouse Fc and anti-human kappa) VH: QVQLQESGPGLVKPSETLSLTCTASGGSITSYYWNWIRQPAGKGLEWIGRIYTSGSTNYNPSLKSRVTMSVDTSKNQFSLKLSSVTAADTAVYYCARDPGYSDAFNIWGQGTMVTVSS VL: not shown | 28%
4 | 24800 gMFI | 1.99e+06 | 15800 | 32200 | 6660 gMFI | 10.3 fold | 8730 | 3.3 fold | 296000 | 75110_02K11A (antibody, V domains shown, Tested as non-clonal hybridoma supernatant (AlivaMab Mouse Kappa), detected with anti-mouse Fc and anti-human kappa) VH: QVQLQESGPGLVKPSQTLSLTCTVSGGSISSGFYYWTWIRQHPGKGLEWIGYISYSGNTYYNPSFKSRLTISVDTSKSQFSLKLSSVTAADTAVYYCARDRPSNFDAFDIWGQGTMVTVSS VL: not shown | 29%
5 | 24400 gMFI | 45 | 17200 | 35000 | 6620 gMFI | 3.4 fold | 8160 | 1.8 fold | 247000 | 75110_05A11A (antibody, V domains shown, Tested as non-clonal hybridoma supernatant (AlivaMab Mouse Kappa), detected with anti-mouse Fc and anti-human kappa) VH: EVQLVESGGGLVKPGGSLTLSCAASGFTFSNTWMSWVRQAPGKGLEWVGRIKSKIDGGTTDYAAPVKGRFTISRDDSKNTLYLQMNSLKTEDTAVYYCTTSGTYSSGWGLFDYWGQGTLVTVSS VL: DIQMTQSPSSLSASVGDRVTITCQASQDISNYLNWYQQKPGKAPKLLIYDTSNLEAGVPSRFSGSGSGTHFTLTISSLQPEDIATYYCQQYDNLPFTFGGGTRVEIK | 26%
6 | 27200 gMFI | 1.89e+06 | 16800 | 34000 | 7430 gMFI | 2.9 fold | 9440 | 1.6 fold | 302000 | 75110_04H17A (antibody, V domains shown, Tested as non-clonal hybridoma supernatant (AlivaMab Mouse Kappa), detected with anti-mouse Fc and anti-human kappa) VH: QVQLQESGPGLVKPSETLSLTCTVSGGSISTYYWSWIRQSAGKGLEWIGRIYTSERPNYNPSLKSRVTMSVDTSKNQFSLKLNSVSAADTAVYYCARELERPYYYGMDVWGQGTTVTVSS VL: DVQMTQSPSSLSASVGGRVTITCQASQDISNYLNWYQQKPGKAPKLLIYYASNLETGVPSRFSGSGSGTDFTFTISSLQPEDFATYYCQQYDNLPLTFGGGTKVEIK | 30%
7 | 42200 gMFI | 45 | 15900 | 30000 | 8510 gMFI | 10.6 fold | 8920 | 2.8 fold | 281000 | 75110_05F19A (antibody, V domains shown, Tested as non-clonal hybridoma supernatant (AlivaMab Mouse Kappa), detected with anti-mouse Fc and anti-human kappa) VH: EVQLVESGGGLVQPGGSLRLSCAASGFTFSNYDVHWVRQPTGKGLEWVSTIGTAGDTYYPGSVKGRFTISRENAKNSLYLQMNSLRAGDTAVYYCARGGYDYYGLDVWGQGTTVTVSS VL: not shown | 31%
8 | 17300 gMFI | 1.86e+06 | 15300 | 41900 | 4280 gMFI | 4.7 fold | 8480 | 1.6 fold | 276000 | 75110_02E22A (antibody, V domains shown, Tested as non-clonal hybridoma supernatant (AlivaMab Mouse Kappa), detected with anti-mouse Fc and anti-human kappa) VH: QVQLQESGPGLVKPSETLSLTCTVSGGSISSFYWSWIRQPAGKGLEWIGRIYTSGSTNYNPSLKSRVTMSVDTSKNQFSLKLSSVTAADTAVYYCARELEKRNYYGMDVWGQGTTVTVSS VL: DIQMTQSPSSLSASVGDRVTITCQASHDISNYLNWYQQKPGKAPKLLIFDASTLETGVPSRFSGSGSGTYFTFTIRSLQPEDIATYYCQQYDSLPLTFGGGTKVEIK | 31%
9 | 21900 gMFI | 2.11e+06 | 17100 | 29200 | 6790 gMFI | 4.5 fold | 7370 | 2.3 fold | 174000 | 75110_04D20A (antibody, V domains shown, Tested as non-clonal hybridoma supernatant (AlivaMab Mouse Kappa), detected with anti-mouse Fc and anti-human kappa) VH: QVQLQESGPGLVKPSETLSLTCTVSNGSISDYYWSWIRQPAGKGLEWIGRIYTSGSTNYNPSLKSRITMSVDTSKNQFSLELSSVTAADTAVYYCARELERYYFYGVDVWGQGTTVTVSS VL: not shown | 28%
10 | 45600 gMFI | 45 | 16500 | 36400 | 8050 gMFI | 5.8 fold | 9330 | 1.9 fold | 231000 | 75110_05E13A (antibody, V domains shown, Tested as non-clonal hybridoma supernatant (AlivaMab Mouse Kappa), detected with anti-mouse Fc and anti-human kappa) VH: EVQLVESGGDLVKPGGSLRLSCAASGFSFSNAWMSWVRQAPGKGLEWVGRVESKTDGGTTDYAAPVKDRFTISRDDSKYTLYLQMNSLKTEDSAVYYCTIGGGFGLELYGFFDYWGQGTLVTVSS VL: DIQMTQSPSTLSASVGDRVTITCRASQSISSWLAWYQQKPGKAPMLLIYKASSLESGVPSRFSGSGSGTEFTLTISSLQPDDFATYYCLQYNSYYTFGQGTKLEIK | 26%
11 | 34900 gMFI | 1.78e+06 | 16500 | 36200 | 6530 gMFI | 14.7 fold | 9490 | 3.7 fold | 308000 | 75110_01C18A (antibody, V domains shown, Tested as non-clonal hybridoma supernatant (AlivaMab Mouse Kappa), detected with anti-mouse Fc and anti-human kappa) VH: EVQLVESGGGLIQPGGSLRLSCAASGFTVSSNYMNWVRQAPGKGLEWVSVIYAGDNTYSADSVKGRFTISRDNSNNTLCLQMNSLRAEDTAVYYCAREGGTTGAFDIWGQGTMVTVSS VL: DIQMTQSPSSVSASVGDRVTITCRASQGINSWLAWYQQKPGKAPKLLIYAASSLQSGVPSRFSGSGSGTDFTLTISSLQPEDFATYYCQQGNSFPYTFGQGTKLEIK | 31%
12 | 30900 gMFI | 215000 | 8460 | 33800 | 5830 gMFI | 6.2 fold | 7730 | 1.8 fold | 234000 | 75110_07J24A (antibody, V domains shown, Tested as non-clonal hybridoma supernatant (AlivaMab Mouse Kappa), detected with anti-mouse Fc and anti-human kappa) VH: QAQLQESGPGLVKPSETLSLTCTVSGGSISSYYYNWIRQPAGKGLEWIGRIYTSGRTDYNPSLKSRVTMSADTSKNQFSLKLSSVTAADTAVYYCARDEGPTDAFDIWGQGTMVTVSS VL: DIVMTQTPLSLPVTPGEPASISCRSSQSLLDSDDGNTYLDWYLQKPGQSPHLLIYTLSYRASGVPDRFSGSGSGSDFTLKISRVEAEDVGVYYCMQRIEFPFTFGPGTKVDIK | 33%
